The text below walks through data of PMC10904854, “A druggable conformational switch in the c-MYC transactivation domain” (Nature Communications, 2024).

Assay [1] has as its target T1, TRRAP_(2038-2087) synthetic peptide (N-terminal acetyl (Ac-), C-terminal amide (-NH2)).
T1 construct: transformation/transcription domain-associated protein (TRRAP), residues 2038-2087; also called TRRAP peptide; source: synthetic peptide (GenScript)
T1 peptide: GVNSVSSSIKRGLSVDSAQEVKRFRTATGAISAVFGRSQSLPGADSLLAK
Kind of assay: native MS; equimolar mixture, 15.5 uM coreMYC and 15 uM TRRAP_(2038-2087) peptide in 100 mM ammonium acetate, no EGCG, sample cone 10 V. As to conditions: both partners purified.

Assay [2] deals with T2, Recombinant human TATA binding protein (ab81897, Abcam) (human).
T2 construct: also called TBP; full-length, human TBP; source: bought: Abcam (ab81897)
T2 chain: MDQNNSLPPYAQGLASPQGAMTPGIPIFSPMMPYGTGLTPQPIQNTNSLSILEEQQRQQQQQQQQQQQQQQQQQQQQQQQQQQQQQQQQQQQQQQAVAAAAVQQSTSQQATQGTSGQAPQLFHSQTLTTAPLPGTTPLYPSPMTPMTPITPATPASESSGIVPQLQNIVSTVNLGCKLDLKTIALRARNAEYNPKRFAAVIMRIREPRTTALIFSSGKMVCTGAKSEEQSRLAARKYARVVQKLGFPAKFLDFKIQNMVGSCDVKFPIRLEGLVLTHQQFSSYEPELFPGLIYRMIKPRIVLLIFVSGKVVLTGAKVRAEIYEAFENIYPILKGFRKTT
Kind of assay: native MS; mixture of coreMYC (6) and full-length TBP (10; concentrations printed as mM), ammonium acetate (TBP exchanged into 1 M), no EGCG, sample cone 50 V. As to conditions: both partners purified.

B1: MGHis6-coreMYC (c-MYC residues 101-150) (peptide)
chain: MVTELLGGDMVNQSFICDPDDETFIKNIIIQDCMWSGFSAAAKLVSEKLA
notes: c-MYC, residues 101-150 (coreMYC); Cloned into pET-26b(+); also called MYC_(101-150); COnformational REgulator of c-MYC; source: E. coli BL21 (DE3), purified in-house (solubilised from the pellet in urea, His SpinTrap column); not shown: MGHis6, N-terminal, kept
On to B1, for which the “stoichiometry N” value in assay [1] and in assay [2] was 1 throughout.

The term stoichiometry N denotes a count of units in the complex or per binding partner.
